Substitutions are numbered along the chain they refer to. Names and notes keep the numbering of the source.
B1: CasPhi.12 L26R: variant of CasPhi.12, SEQ ID NO: 1603; delivered encoded in AAV9-4A vectors PL26297 or PL31718 (protein)
chain: MIKPTVSQFLTPGFKLIRNHSRTAGRKLKNEGEEACKKFVRENEIPKDECPNFQGGPAIANIIAKSREFTEWEIYQSSLAIQEVIFTLPKDKLPEPILKEEWRAQWLSEHGLDTVPYKEAAGLNLIIKNAVNTYKGVQVKVDNKNKNNLAKINRKNEIAKLNGEQEISFEEIKAFDDKGYLLQKPSPNKSIYCYQSVSPKPFITSKYHNVNLPEEYIGYYRKSNEPIVSPYQFDRLRIPIGEPGYVPKWQYTFLSKKENKRRKLSKRIKNVSPILGIICIKKDWCVFDMRGLLRTNHWKKYHKPTDSINDLFDYFTGDPVIDTKANVVRFRYKMENGIVNYKPVREKKGKELLENICDQNGSCKLATVDVGQNNPVAIGLFELKKVNGELTKTLISRHPTPIDFCNKITAYRERYDKLESSIKLDAIKQLTSEQKIEVDNYNNNFTPQNTKQIVCSKLNINPNDLPWDKMISGTHFISEKAQVSNKSEIYFTSTDKGKTKDVMKSDYKWFQDYKPKLSKEVRDALSDIEWRLRRESLEFNKLSKSREQDARQLANWISSMCDVIGIENLVKKNNFFGGSGKREPGWDNFYKPKKENRWWINAIHKALTELSQNKGKRVILLPAMRTSITCPKCKYCDSKNRNGEKFNCLKCGIELNADIDVATENLATVAITAQSMPKPTCERSGDAKKPVRARKAKAPEFHDKLAPSYTVVLREAV
B2: CasPhi.12 L26R, I471T, S223P, D703G: CasPhi.12 engineered variant, SEQ ID NO: 1607 (protein)
chain: B1 chain with S223P, I471T, D703G
B3: CasM.265466 D220R: variant of CasM.265466, SEQ ID NO: 1602; delivered encoded in AAV9-4A vectors PL31719, PL31720, PL31721 (protein)
chain: MSVLTRKVQLIPVGDKEERDRVYKYLRDGIEAQNRAMNLYMSGLYFAAINEASKEDRKELNQLYSRIATSSKGSAYTTDIEFPTGLASTSTLSMAVRQDFTKSLKDGLMYGRVSLPTYRKDNPLFVDVRFVALRGTKQKYNGLYHEYKSHTEFLDNLYSSDLKVYIKFANDITFQVIFGNPRKSSALRSEFQNIFEEYYKVCQSSIQFSGTKIILNMAMRIPDKEIELDEDVCVGVDLGIAIPAVCALNKNRYSRVSIGSKEDFLRVRTKIRNQRKRLQTNLKSSNGGHGRKKKMKPMDRFRDYEANWVQNYNHYVSRQVVDFAVKNKAKYINLENLEGIRDDVKNEWLLSNWSYYQLQQYITYKAKTYGIEVRKINPYHTSQRCSCCGYEDAGNRPKKEKGQAYFKCLKCGEEMNADFNAARNIAMSTEFQSGKKTKKQKKEQHENK

Columns and labels:
mouse PCSK9 gene = experiment: In vivo editing of PCSK9 in muscle tissues via AAV9-4A delivery of CasPhi.12 and CasM.265466 variants, indels by NGS; design: species or system C57BL/6J mice; details: for inducing indels in vivo at the PCSK9 locus across different muscle tissues: summary in words
Source text: The purpose of the study was to assess the capability of two effector protein variants, CasPhi.12 L26R (a variant of CasPhi.12) and CasM.265466 D220R (a variant of CasM.265466), to edit nucleic acid sequences within muscle tissues in vivo. The study focused on PCSK9 as an exemplary gene target.
In this study, an AAV9-4A vector was employed as the delivery vehicle for introducing the effector protein and gRNA into the specific target tissues. The DNA encoding the effector protein (e.g., SaCas9, CasPhi.12 L26R, or CasM.265466 D220R) and its corresponding promoter (e.g., ck8e or spc5), along with the DNA encoding the gRNA containing the targeting spacer sequence specific to PCSK9 (referred to as PCSK9 in the plasmid) and its u6 promoter were cloned into the AAV9-4A plasmid between the AAV inverted terminal repeats (ITRs), creating AAV9 constructs as follows: • 1) pssAAV-ITR-u6-PCSK9-ck8e-saCas9-bGHpolya-ITR (PL26295) • 2) pssAAV-ITR-u6-PCSK9-ck8e-L26R-wpre-hGHpolya-ITR (PL26297) • 3) pssAAV-ITR-u6-PCSK9-spc5-12-L26R-wpre-hGHpolya-ITR (PL31718) • 4) pssAAV-ITR-u6-PCSK9-ck8e-D220R-wpre-hGHpolya-ITR (PL31719) • 5) pssAAV-ITR-u6-PCSK9-spc5-12-D220R-wpre-hGHpolya-ITR (PL31720) • 6) pscAAV-ITR-u6-PCSK9-Spc5-12-D220R-HSVpolyA-ITR (PL31721)
The sequences of the gRNA designed for use in conjunction with SaCas9, CasPhi.12 L26R, or CasM.265466 D220R for targeting the mouse PCSK9 gene are provided in TABLE 14.
6-week old male C57BL/6J mice were given a single intravenous (IV) bolus through the tail vein using a 1.0 cc syringe with a 27G-⅝″ needle or a single intramuscular (IM) bolus into the gastrocnemius.
4 weeks after the treatment, the mice were euthanized for assessment. Before collecting the tissues, the mice underwent whole-body perfusion via the left ventricle using 5.0-10.0 mL of PBS to remove any remaining blood from the tissues. Tissue samples weighing 100 mg were then dissected from the liver, heart, gastrocnemius, diaphragm, pectoral, and masseter, respectively, and placed on a plate for subsequent Next-Generation Sequencing (NGS) analysis. For the intramuscular (IM) groups, both the left and right gastrocnemius were weighed and harvested. For all other groups, only the left gastrocnemius was weighed and harvested.
The genomic DNA isolated from the muscle tissues was subject to NGS and aligned to a reference DNA sequence for the analysis of insertions or deletions (indels).

DMD = DMD exon precise editing in HEK293T cells with CasPhi.12 engineered variant, MCP-RT and retRNA, Amplicon Sequencing; assay type: cell-based, human; details: MCP-RT SEQ ID NO: 1608, retRNA SEQ ID NO: 1590, guide SEQ ID NO: 1327, 72 hours
Experimental: HEK293T cells were transfected with plasmids encoding effector protein CasPhi.12 L26R, I471T, S223P, D703G (SEQ ID NO: 1607), a reverse transcriptase (RT) (SEQ ID NO: 1608), a retRNA (SEQ ID NO: 1590), and a guide nucleic acid targeting DMD (SEQ ID NO: 1327). The effector protein was not linked to the RT, but the RT was fused to an MS2 coat protein (MCP) capable of binding an MS2 aptamer loop in the retRNA. Cells were harvested 72 hours later and cell lysates were prepared for Amplicon Sequencing. The percentage of reads containing precise edits were analyzed.

Molecule	indel rate in the PCSK9 gene (mouse PCSK9 gene; heart, PL26297 vector, IV administration, 4 weeks after treatment)	indel rate in the PCSK9 gene (mouse PCSK9 gene; heart, PL31718 vector, IV administration, 4 weeks after treatment)	indel rate in the PCSK9 gene (mouse PCSK9 gene; masseter, PL26297 vector, IM administration, 4 weeks after treatment)	indel rate in the PCSK9 gene (mouse PCSK9 gene; right gastrocnemius, PL26297 vector, IM administration, 4 weeks after treatment)	inducing indels in vivo at the PCSK9 locus across different muscle tissues (mouse PCSK9 gene)	precise editing, average (percentage of reads containing precise edits) (DMD) [%]	precise editing, one replicate (DMD) [%]	indel rate (mouse PCSK9 gene; diaphragm, PL31719 vector, IV administration, 4 weeks after treatment)	indel rate (mouse PCSK9 gene; heart, PL31719 vector, IV administration, 4 weeks after treatment)	indel rate (mouse PCSK9 gene; heart, second statement ('Additionally'), vector PL31719, IV administration)	fold greater indel rate in the heart compared to SaCas9 (mouse PCSK9 gene; heart, versus SaCas9 delivered in the PL26295 vector via IV administration)	indel rate (mouse PCSK9 gene; left gastrocnemius, PL31719 vector, IV administration, 4 weeks after treatment)	indel rate (mouse PCSK9 gene; left gastrocnemius, second statement ('Additionally'), vector PL31719, IV administration)	indel rate (mouse PCSK9 gene; liver, PL31719 vector, IV administration, 4 weeks after treatment)	indel rate (mouse PCSK9 gene; masseter, PL31719 vector, IV administration, 4 weeks after treatment)	indel rate (mouse PCSK9 gene; pectoral, PL31719 vector, IV administration, 4 weeks after treatment)	indel rate (mouse PCSK9 gene; pectoral, second statement ('Additionally'), vector PL31719, IV administration)
B1	about 8%	about 8%	about 3%	about 5%	highly efficient												
B2						1.6	2.1										
B3					highly efficient			about 10%	about 20%	about 11%	approximately 2 fold	about 15%	about 10%	about 25%	about 5%	about 13%	about 3%
